A protein production outcome set (Wang et al. 2014)

Experiment: label from the status in PepcDB records

| Sequence | protein production |
| --- | --- |
| MLKTLAVANYRSINKLVIPLGRLNLVTGANGSGKSNLYRALRLLAETAQGGVVNALAKEGGLESTYWAGPEQISRRMSQGEVPIQGGPRKAARRLQLGFAGEDFGYAISLGLPDSSGHFMLPGHSSPIASRFTLDPWIKRESIWGGPLYRSASALVDRQGPMIRARAGRQWEVLAQHTSSGDSLFDRVGNLSSSPEVLHLREQIRGWRFYDHLRTDSQAPARRPQLGTRTPVLHHDGRDLAAALQTIIEVGDQQALHETISDAFPESRLEIDAVPGGLFGVQFYQEGLLRPLSAAELSDGTLRYLLLVAALLTPRPPTLMVLNEPETSLHPDLLPALARLIIRASQQCQVWVVSHARRLIAALQQDPECNCIVLEKQLGQTGIVGQRMLDEPAWNWPDLEHHHHHH | failed |
| MRFGRFLAVVACATLLAACASTPTPPAGELSGTPTALESGPKKDPLNTLNSTGRAGTLSRSTVVNVDQSSVDWLRGPSSDIWDRIRKGFAMPDLEGTLVDDRTQWYAARPDYMERMVGRSSRYLYHIVEELERRKMPTELALLPFVESAFNPQAESTAKAAGMWQFIPSTGKTYNLKQNMFRDERRDVLASTDAALDYLQRLYDMFGDWQLALAAYNWGEGAVSRAIARNQARGLPTDYASLTMPTETRYYVPKLQAVKNIIANPAAYGVRLPEIPDHPYFVTVTTSRDIDVALAAKLANMPLDEFKALNPSFNRPVILGAANPQILLPFENAERFQYNLNTYRGGLSSWTAVTVDSRERVESLAARLNVDVDTLREINRIPKGMRLKAGSTVMIPRTERHDQDISASLVDTAMLAVEPDVPDAKRVVVRAGRKDTVSTVARRYGVSVKQVQSWNKLSGSKLVAGQSLVLMLRPNSAAAMRAERAGDEDDTPAKAAPHGKSGGKTQAVAKSEKYDKVEKSSRSAKAEPRKRVVVEASPHSSTSKSSGKSATRESKSSPTPATKSKSSRAQ | failed |
| MSLSVAIIGPGAVGTTIAYELQQSLPHTTLIGRHAKTITYYTVPHAPAQDIVVKGYEDVTNTFDVIIIAVKTHQLDAVIPHLTYLAHEDTLIILAQNGYGQLEHIPFKNVCQAVVYISGQKKGDVVTHFRDYQLRIQDNALTRQFRDLVQDSQIDIVLEANIQQAIWYKLLVNLGINSITALGRQTVAIMHNPEIRILCRQLLLDGCRVAQAEGLNFSEQTVDTIMTIYQGYPDEMGTSMYYDIVHQQPLEVEAIQGFIYRRAREHNLDTPYLDTIYSFLRAYQQNEGHHHHHH | not failed |
| MKSTFSVLFFVKKDKQKINGSYPIFVRITIDGVASRFNSKLDVQPKLWDGKAGKAAGRSAEATRINRLLDDINASLNTIYHELQRRDNYVTAEKVKNEFLGHSENHDTILNLFQKHNDDVKQLVGISKTIATYRKYEVTRRHLAEFIQSKYNLSDISIKEITPMFITDFELYLRTTCKCGYNTTAKFMQFFKRIILIARNNGILIGDPFANYKIRLEKVDRGYLTEDEIKIILKKKMVSERLEQVRDVFIFSCFSGLAYVDVANLKEDNIRKSFDGNLWIITKRQKTNTDVNVPLLDIPKMILEKYKGKLPNGKVLPIISNQK | not failed |
| MNLVETAQAIEAGQVSLGIELGSTRIKAVLVTDDFNTIASGSYVWENRFEDGVWTYPLEEVWSGIQQSYTQMAADVQSKYHASLKHINAIGVSAMMHGYLAFDKNNELLVPFRTWRNNITGQSADELTKLFDFNIPQRWSIAHLYQAVLNDEDHVAKVDFITTLAGYVTWKLSGEKVLGVGDASGVFPIDEKTGSYDQAMLDKFSSLDNVKRYPWQIENILPSILPAGKIAGKLTADGANLLDASGNLEAGSVMAPPEGDAGTGMVGTNSVRKRTGNISVGTSAFSMNVLDKPLSKVYRDIDIVMTPDGSPVAMVHVNNCSSDINAWASIFSEFAARLGVDLKPDRLYETLFLESTKADANAGGLVNYSYQSGENITKIQAGRPLFVRTPNSKFSLPNFMLTQLYAAFAPLQIGMDILVNEEHVQTDVMIAQGGLFRTPVIGQQVLANALNIPITVMSTAGEGGPWGMAVLAAYAQRQTGANLEDFLDQEVFTNPESMTLSPEPAGVAGYQEFIKNYQAGLPVEAAAGEAISD | failed |
| MSNELPAVICLVGPTGAGKTAAALHLAERFAGTVINADSRQVYRDFPIITAQPTAEEQAQCPHRLYGFLETEARMSAGVWGDHATAAIDEALAQGRLPLLVGGTGMYVRALLDGIAAIPAIPRDIHVRWQERCAAEGPQRLHAMLCDIDAEYAARIHPNDRQRVTRALEVHEHTGRTFSEWHRSAMPAPRYRALRIGFAATLDALTPRLAHRIDLMLAAGALDEARRARVHCDDPSAPGWSGIGCAETYAHLVGSLDYEAMRHVWLHNTRAYAKRQLTWFRADTRLTWYAPDDVEGIALGVASFLRGGA | failed |
| MLRIFIPTSNGKISRRRYIFSFILINFIFAFLIIFFNDGEAGFLVIVSTIVLHYLVINMNCQRLRDSGFIYIKTYVFGTLAVYIISIITMIAEDFACSGNGSMIFLICYFSTFSMLMLAPTDSSKQ | failed |
| METKTVAITMGDPAGIGPEIIVKALSEDGLNGAPLVVIGCLATLKRLQAKGITPNVELRAIERVAEARFAPGIIHVIDEPLAQPEALEAGKVQAQAGDLAYRCVKRATELALRGDVQAIATAPLNKEALHLAGHNYPGHTELLATLTHSRDYAMVLYTDKLKVIHVSTHIALRKFLDTLSTARVETVIGIADTFLKRVGYVKPRIAVAGVNPHAGENGLFGDEETRILTPAITDARAKGMDVYGPCPPDTVFLQAYEGQYDMVVAMYHDQGHIPLKLLGFYDGVNITAGLPFIRTSADHGTAFDIAWTGKAKSESMAVSIKLAMQLA | not failed |
| MKVLFIHPFGSNWLGTGTDITTIFNLMPPLGLLSIAAFLEARGIGTEVIDCYATPMPAETLVAEVIRRRPDVVGFSCTTSSFLEGYSIAERIKEKAPGITTVFGGAHACSVGVGLLDTFPAIDYLVIGEGEQTFFELVTNLDHGGSGIPGVGYRENGKGVISALREHIANLDDLPFPAYHRLPQFPKRYILPLFSYPKAPNTSIISSRGCPYQCSYCDRSVFSRGFRFNSPEYIVEHLKMLNRDYGIRHVFFYDDLFTTDRARVARFCELKERERLPVTYNCIARLEHVDAELLRLLKRSGCWQVNFGIESGDPEVIKKHRKFYGLDEVQRKLQLVRDTGMRVKGLFMVGLPGETEESIRRTIDYALALPLDEINVTKFTPFPGAPLYATIREQGEFDENWPLMNCLNFVFVPHGMTREQLEGLYNEFISRFYRRSRIHWGYTKMLWKSPHSVATFLRHLPEILAFELKQKW | failed |
| MHTDVNALFAALWQDYIKMTPSAAKIHQLLGHGAPIINDHIALRTFNIAKVNLSVLAKHFTSIGYVDSGDYKFEQKKLIAKHFEHPDPKQPKVFISELLVEEFSPEVQKSIHGLIDQVDIAATTADNFIYSGRHWDVDKATYQALLAESEYAAWVAALGYRANHFTVSINDLPEFERIEDVNQALKQAGFVLNSSGGEVKGSPEVLLEQSSTMADKVVVNFTDGDVEIPSCFYEFARRYPMANGQLYTGFVAASADKIFESTNAMM | not failed |
| LPIIVKWGGQEYSVTTLSKDDTVLDLKQFLKTLTGVLPERQKLLGLKVKGKPAENDVKLGALKLKPNTKIMMMGTRE | not failed |
| EPLTIREYRPEDLEALLPLYEQLGYPTRTDELRDRLAGLLSHEDYHLLVAECDGQLVAFIGYARMYFFEHDGSYYRILALAVS | failed |
| MSGFSPELIDYLEGKISFEEFERRREERKTREKKSLQEKGKLSAEENPDDSEVPSSSGINSTKSQDKDVNEGETSDGVRKSVHKVFASMLGENEDDEEEEEEEEEEEEEEETPEQPTAGDVFVLEMVLNRETKKMMKEKRPRSKLPRALRGLMGEANIRFARGEREEAILMCMEIIRQAPLAYEPFSTLAMIYEDQGDMEKSLQFELIAAHLNPSDTEEWVRLAEMSLEQDNIKQAIFCYTKALKYEPTNVRYLWERSSLYEQMGDHKMAMDGYRRILNLLSPSDGERFMQLARDMAKSYYEANDVTSAINIIDEAFSKHQGLVSMEDVNIAAELYISNKQYDKALEIITDFSGIVLEKKTSEEGTSEENKAPENVTCTIPDGVPIDITVKLMVCLVHLNILEPLNPLLTTLVEQNPEDMGDLYLDVAEAFLDVGEYNSALPLLSALVCSERYNLAVVWLRHAECLKALGYMERAAESYGKVVDLAPLHLDARISLSTLQQQLGQPEKALEALEPMYDPDTLAQDANAAQQELKLLLHRSTLLFSQGKMYGYVDTLLTMLAMLLKVAMNRAQVCLISSSKSGERHLYLIKVSRDKISDSNDQESANCDAKAIFAVLTSVLTKDDWWNLLLKAIYSLCDLSRFQEAELLVDSSLEYYSFYDDRQKRKELEYFGLSAAILDKNFRKAYNYIRIMVMENVNKPQLWNIFNQVTMHSQDVRHHRFCLRLMLKNPENHALCVLNGHNAFVSGSFKHALGQYVQAFRTHPDEPLYSFCIGLTFIHMASQKYVLRRHALIVQGFSFLNRYLSLRGPCQESFYNLGRGLHQLGLIHLAIHYYQKALELPPLVVEGIELDQLDLRRDIAYNLSLIYQSSGNTGMAQTLLYTYCSI | failed |
| MMTKYGVVGTGYFGAELARFMSKVEGAKITAIYDPVNAAPIAKELNCVATATMEALCSHPDVDCVIIASPNYLHKAPVIAAAKAGKHVFCEKPIALNYQDCKDMVDACKEAGVTFMAGHVMNFFHGVRHAKALIKAGEIGEVTQVHTKRNGFEDVQDEISWKKIRAKSGGHLYHHIHELDCTLFIMDETPSLVSMAAGNVAHKGEKFGDEDDVVLITLEFESGRFATLQWGSSFHYPEHYVLIEGTTGAILIDMQNTAGYLIKAGKKTHFLVHESQAEDDDRRNGNISSEMDGAIAYGKPGKRTPMWLSSIMKLEMQYLHDVINGLEPGEEFAKLLTGEALEHHHHHH | failed |
| MNIVIVVFSTDEETLRKFKDIIKKNGFKVRTVRSPQELKDSIEELVKKYNATIVVVVVDDKEWAEKAIRFVKSLGAQVLIIIYDQDQNRLEEFSREVRRRGFEVRTVTSPDDFKKSLERLIREVGSLEHHHHHH | not failed |
| MLKILATQFNGKLQTLTKQEDELFDVVRLLAQALVGQGKVYLDAYGEFEGLYPMLSDGPDQMKRVTKIKDHKTLHAVDRVLIFTPDTERSDLLASLARYDAWHTPYSIITLGDVTETLERSIAPLALKFDKGLLPAEDGSRHGLPSLALGAFLLTHILTQLQEMTEEWE | not failed |
| MAFIESWAKRTWLVPPQMQLYVDYKIKVTEILTNYTSIEEIHSYSIDESFLDITESLNFFYPDIRNRYEQMNLITLDLQREILDKLGLYVTVGMGDNPLLAKLAMDNYAKHNQNMRALIRYLEHHHHHH | failed |
| MNLTRLREKILNKSHSAMLIFSDINISYLSTFTGHAATILLTSKGNYLLTDYRYFEQAKTQASHFNVICRDRANQSLASLIEDLLFQDDCQSLSFESEHISVMQWQQIHQQISQLTKLSQIEAVSGAVEALRFIKSTSEISSIEQAAKIADTALAAMLNSVKAGVTERELAIELDYQMAKLGSEEVSFATILLFGERSALPHGIPSDKQLKLGDIILIDFGAVVNGYRSDMTRTFVFGQASAEQKHIYQLVQSAQQAAIDAVYEGVLGSHLYQQSANILLNSEYKKYAGEGLGHGVGLVLHEQPFIGPDCHTTIEKGCVITIEPGIYIPGWGGIRIEDDVVLTDEGLKILTKSPKGLIEL | failed |
| MATMNEKDYYEILGVSKDATSRDIQKAFQQKARKLHPDVNKEPDAEEKFKEVSEAYAVLSDEQKRARYDAMRSGNPFAGAPTASPYGGGYAGSAGYGNPFDGGFPFGGAWGQPRRGQAAYNPESGANVVVDIKLDAKEAKSGAHKTVRYTRFDTCGHCGGSGSVSSEHAHTCPSCGGRGHIDVDLSFLFGAGTFQTVCPECGGSGKVVADPCPDCGGSGRIRVTSEQTIEFPAGTHDGDEVRIPNMGHAGTNGASGGDLVGRAHVEAERLEGKARTGFYLMGIIAPFLVLSAISGVFSAFAMMCFIPFAMGLFMVLSDGVLHRSLLWWKRGAMQFANGFANGFMFALVSVWFASCSQQAMLSPYGMQ | failed |
